Experimental data published in patent publication US20120195900A1 (AbbVie / Abbott, published 2012).
Read-outs that look alike come from different tables or passages of the source. Blank lines part the entries; values can stand above or below the binder they belong to.

Key:
[1] = biological target: hIL-13 (human, UniProt P35225 35-146, limits assumed); experiment: cell-based or functional assay
[2] = biological target: T1, recombinant human IL-18 (human, UniProt Q14116 37-193); experiment: cell-based or functional assay
[3] = biological target: T1, recombinant human IL-18; experiment: cell-based or functional assay; remark: listed apart in the source
[4] = biological target: T2, human IL-12 (human, UniProt P29459 23-219; P29460 23-328, biotinylated in the ELISA (site not stated)); experiment: cell-based or functional assay
T2 sequence (looked up) 1: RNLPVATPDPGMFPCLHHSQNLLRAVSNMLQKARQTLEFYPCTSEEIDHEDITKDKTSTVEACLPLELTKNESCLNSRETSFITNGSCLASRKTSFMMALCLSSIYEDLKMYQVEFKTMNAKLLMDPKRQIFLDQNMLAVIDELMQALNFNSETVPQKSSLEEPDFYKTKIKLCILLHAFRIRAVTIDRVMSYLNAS
T2 sequence (looked up) 2: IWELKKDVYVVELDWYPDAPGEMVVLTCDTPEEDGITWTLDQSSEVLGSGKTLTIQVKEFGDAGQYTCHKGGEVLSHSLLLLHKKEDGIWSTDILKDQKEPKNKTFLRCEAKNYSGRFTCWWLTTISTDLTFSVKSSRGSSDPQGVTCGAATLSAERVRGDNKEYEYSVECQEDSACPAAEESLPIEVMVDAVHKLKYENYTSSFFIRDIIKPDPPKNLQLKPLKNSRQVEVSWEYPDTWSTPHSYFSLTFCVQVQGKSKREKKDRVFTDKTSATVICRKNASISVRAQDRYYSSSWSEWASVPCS

[5] = biological target: T2, human IL-12; experiment: ELISA, biotinylated IL-12 on streptavidin plates, anti-human IgG detection (column head: ED50)
Method: Plates were washed five times with 1× PBST. Biotinylated IL-12 was diluted to 100 ng/ml in 10% superblock/PBST and 100 ml was added to each well. Plates were incubated for 2 hours at room temperature and then washed five times with 1× PBST. Control antibodies (human IgG and 1D4.1) and TVD-Igs were diluted to 1000 ng/ml and serially diluted 1:3 in 10% SB/PBST. Samples were added to the plate at 100 ml per well and incubated for 1 hour at RT. Plates were then washed five times. […] Plates were incubated for 1 hour at Room Temperature and then washed five times. […] Plates were read on a spectrophotometer at OD 450 nm. The EC50 values were determined using sigmoidal curve fit analysis from the binding curve.

hIL-13, sequence (P35225 35-146 limits assumed): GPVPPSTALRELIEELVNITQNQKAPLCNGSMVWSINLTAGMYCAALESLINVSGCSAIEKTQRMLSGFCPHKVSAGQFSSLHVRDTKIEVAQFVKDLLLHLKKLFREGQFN

neutralization potency (IC50, nM), A-549 bioassay: TARC production [1]: 0.05 nM
B1: 13C5.5L3F (anti-IL-13 monoclonal antibody) (antibody, V domains shown)
VH: EVTLRESGPGLVKPTQTLTLTCTLYGFSLSTSDMGVDWIRQPPGKGLEWLAHIWWDDVKRYNPALKSRLTISKDTSKNQVVLKLTSVDPVDTATYYCARTVSSGYIYYAMDYWGQGTLVTVSS
VL: DIQMTQSPSSLSASVGDRVTISCRASQDIRNYLNWYQQKPGKAPKLLIFYTSKLHSGVPSRFSGSGSGTDYTLTISSLQPEDIATYYCQQGLTPPLTFGGGTKVEIKR

neutralization potency (IC50, nM), KG-1 bioassay: IFN-γ production [2]: 0.58 nM
neutralization potency (IC50, nM), KG-1 bioassay: IFN-γ production [3]: 0.1 nM
B2: mAb 2.5 (anti-hIL-18 monoclonal antibody) (antibody, V domains shown)
VH: EVQLVQSGTEVKKPGESLKISCKGSGYTVTSYWIGWVRQMPGKGLEWMGFIYPGDSETRYSPTFQGQVTISADKSFNTAFLQWSSLKASDTAMYYCARVGSGWYPYTFDIWGQGTMVTVSS
VL: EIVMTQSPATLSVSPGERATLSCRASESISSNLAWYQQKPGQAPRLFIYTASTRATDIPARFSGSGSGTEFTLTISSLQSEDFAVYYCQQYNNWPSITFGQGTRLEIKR

neutralization potency (IC50, nM), human IL-12 bioassay: IFN-γ release from PHA blast cells [4]: 0.624 nM
EC50 [5]: 0.38 nM
B3: 1D4.1 (anti-hIL-12 monoclonal antibody) (antibody, V domains shown)
VH: EVTLRESGPALVKPTQTLTLTCTFSGFSLSKSVMGVSWIRQPPGKALEWLAHIYWDDDKYYNPSLKSRLTISKDTSKNQVVLTMTNMDPVDTATYYCARRGIRSAMDYWGQGTTVTVSS
VL: DIVMTQSPDSLAVSLGERATINCKASQSVSNDVAWYQQKPGQPPKLLIYYASNRYTGVPDRFSGSGSGTDFTLTISSLQAEDVAVYYCQQDYNSPWTFGGGTKVEIKR
notes: also called Control monoclonal antibody; parental monoclonal antibody 1D4.1
